Experimental findings from patent publication US20240368285A1 (HEFEI TG IMMUNOPHARMA, published 2024) are described below.

For one assay, the target named is T1, MICA002α3-Fc (human).
T1 construct: Produced in the Applicant's laboratory; also called MICA*002-Fc; domain α3 of MICA-002 Fc fusion protein
In words: ELISA on coated MICA*002 α3-Fc (1 µg/ml), HRP anti-human Fab secondary, OD450. In general terms: In an ELISA, binding on a coated surface is turned into a signal by an enzyme label.

A further assay deals with T2, MICA005α3-Fc (human).
T2 construct: also called MICA*005-Fc; domain α3 of MICA-005 Fc fusion protein
T2 sequence (chain, as listed by the source limits assumed): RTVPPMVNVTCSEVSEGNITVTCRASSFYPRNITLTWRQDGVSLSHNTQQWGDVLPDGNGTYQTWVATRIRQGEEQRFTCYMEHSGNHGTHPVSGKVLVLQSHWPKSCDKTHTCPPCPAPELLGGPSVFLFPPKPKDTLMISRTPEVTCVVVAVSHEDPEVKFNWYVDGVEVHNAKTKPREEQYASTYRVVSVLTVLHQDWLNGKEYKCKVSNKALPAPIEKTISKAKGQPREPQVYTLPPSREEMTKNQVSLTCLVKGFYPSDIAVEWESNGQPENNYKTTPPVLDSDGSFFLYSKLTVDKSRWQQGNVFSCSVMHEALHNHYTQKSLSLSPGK
As to the kind of experiment: ELISA on coated MICA*005 α3-Fc (1 µg/ml), HRP anti-human Fab secondary, OD450.

The next assay concerns the target T3, MICA008α3-Fc (human).
T3 construct: also called MICA*008-Fc; domain α3 of MICA-008 Fc fusion protein
In words: ELISA on coated MICA*008 α3-Fc (1 µg/ml), HRP anti-human Fab secondary, OD450.

The target in a further assay is T4, MICA004α3-Fc (human).
T4 construct: also called MICA*004-Fc; domain α3 of MICA-004 Fc fusion protein
T4 sequence (chain, as listed by the source limits assumed): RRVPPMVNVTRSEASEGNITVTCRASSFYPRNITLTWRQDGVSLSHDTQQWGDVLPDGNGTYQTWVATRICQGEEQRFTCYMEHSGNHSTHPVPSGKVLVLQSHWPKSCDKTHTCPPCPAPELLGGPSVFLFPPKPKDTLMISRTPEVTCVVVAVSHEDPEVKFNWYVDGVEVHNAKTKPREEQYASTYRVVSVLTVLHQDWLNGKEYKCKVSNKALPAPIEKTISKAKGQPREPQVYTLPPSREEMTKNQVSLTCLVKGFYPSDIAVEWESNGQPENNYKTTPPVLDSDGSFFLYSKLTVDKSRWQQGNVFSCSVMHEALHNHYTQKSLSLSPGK
As to the kind of experiment: ELISA on coated MICA*004 α3-Fc (1 µg/ml), HRP anti-human Fab secondary, OD450.

The target of a further assay is T5, MICB001α3-Fc.
T5 construct: also called MICB*001-Fc; domain α3 of MICB-001 Fc fusion protein
T5 sequence (chain, as listed by the source limits assumed): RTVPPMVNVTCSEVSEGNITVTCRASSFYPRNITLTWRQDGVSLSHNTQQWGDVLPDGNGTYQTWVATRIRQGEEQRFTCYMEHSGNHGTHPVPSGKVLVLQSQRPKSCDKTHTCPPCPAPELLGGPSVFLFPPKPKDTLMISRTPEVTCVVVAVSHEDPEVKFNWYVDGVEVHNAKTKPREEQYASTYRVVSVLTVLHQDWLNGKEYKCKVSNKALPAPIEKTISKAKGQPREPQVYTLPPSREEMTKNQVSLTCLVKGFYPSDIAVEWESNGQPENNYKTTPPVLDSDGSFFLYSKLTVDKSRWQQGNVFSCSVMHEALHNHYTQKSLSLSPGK
As to the kind of experiment: ELISA on coated MICB*001 α3-Fc (1 µg/ml), HRP anti-human Fab secondary, OD450.

A further assay concerns the target T6, MICB005α3-Fc.
T6 construct: also called MICB*005-Fc; domain α3 of MICB-005 Fc fusion protein
In words: ELISA on coated MICB*005 α3-Fc (1 µg/ml), HRP anti-human Fab secondary, OD450.

In assay [1] the target is T7, MICA on human tumor cells (A-375, A549, HCT-15, MDA-MB-231) (human, UniProt Q29983 24-383).
T7 construct: whole, on cells
T7 sequence (looked up): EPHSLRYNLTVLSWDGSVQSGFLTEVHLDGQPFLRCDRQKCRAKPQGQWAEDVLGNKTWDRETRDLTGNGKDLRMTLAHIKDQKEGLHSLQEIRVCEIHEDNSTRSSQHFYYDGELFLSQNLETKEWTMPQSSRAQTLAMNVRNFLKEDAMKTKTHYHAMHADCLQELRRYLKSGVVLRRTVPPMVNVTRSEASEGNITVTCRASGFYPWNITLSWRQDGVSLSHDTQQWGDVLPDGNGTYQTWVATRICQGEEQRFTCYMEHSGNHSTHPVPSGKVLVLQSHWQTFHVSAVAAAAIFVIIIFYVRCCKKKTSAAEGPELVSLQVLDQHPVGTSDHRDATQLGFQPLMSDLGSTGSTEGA
As to the kind of experiment: flow cytometry on A-375 cells, Alexa-647 goat anti-human secondary, % binding ratio. The protocol: (§1) (2) Tumor cells were diluted to a density of 2×10⁶/mL with PBS and added into a 1.5 ml EP tube in a volume of 100 l/tube. 10 l/tube of goat serum was added into the EP tube; and blocking was conducted at 4° C. for 30 min. […] The tube was incubated at 4° C. for 30 min. 1 mL of PBS was added into the EP tube, and centrifugation was conducted 4° C. at a rate of 3,500 rpm for 5 min. The supernatant was removed. Then, the EP tube was washed once with the PBS, and the supernatant was removed after centrifugation. The cells were resuspended with PBS in a volume of 100 l/tube. An Alexa-647 labeled goat anti-human secondary antibody (purchased from Jackson lab) was added into the tube in a volume of 1 l/tube, and the tube was incubated in the dark at 4° C. for 30 min. The tube was washed twice with PBS, and the supernatant was removed after centrifugation. The cells were resuspended with the PBS in a volume of 200 l/tube, and detection was conducted by a flow cytometer. The results are as shown in FIG. 17A and FIG. 17B, FIG. 18A and FIG. 18B, FIG. 19A and FIG. 19B, and FIG. 20A and FIG. 20B.
(In general: In flow cytometry, cells or beads pass a laser one at a time.)

The target in assay [2] is T7, MICA on human tumor cells (A-375, A549, …). In words: flow cytometry on A-549 cells, Alexa-647 goat anti-human secondary, % binding ratio. The protocol:
as §1

The target is the same in assay [3]. As to the kind of experiment: flow cytometry on HCT-15 cells, Alexa-647 goat anti-human secondary, % binding ratio. The method, then:
as §1

For assay [4] the target is unchanged. As to the kind of experiment: flow cytometry on MDA-MB-231 cells, Alexa-647 goat anti-human secondary, % binding ratio. The method, then: as §1
Assay [5] shares this target. In words: flow cytometry competition on HCT-15 cells; competitor: Biotin-h5A1002, detected with Alexa-647 streptavidin; % binding ratio of Biotin-h5A1002. The protocol: HCT-15 cells were diluted to a density of 2×10⁶/mL with PBS and added into a 1.5 ml EP tube in a volume of 100 l/tube. 10 l/tube of goat serum was added into the EP tube, and blocking was conducted at 4° C. for 30 min. […] The tube was incubated at 4° C. for 30 min. A biotin-labeled affinity maturation antibody Biotin-h5A1002 (having a heavy chain sequence as set forth in SEQ ID NO: 13 and a light chain sequence as set forth in SEQ ID NO: 14) was added. The tube was incubated at 4° C. for 30 min. 1 mL of PBS was added into the EP tube, and centrifugation was conducted 4° C. at a rate of 3,500 rpm for 5 min. The supernatant was removed. The EP tube was washed once with the PBS, and the supernatant was removed after centrifugation. The cells were resuspended with PBS in a volume of 100 l/tube. An Alexa-647 labeled Streptavidin secondary antibody (purchased from Biolegend) was added into the tube in a volume of 1 l/tube, and the tube was incubated in the dark at 4° C. for 30 min. The tube was washed twice with PBS, and the supernatant was removed after centrifugation. The cells were resuspended with the PBS in a volume of 200 μl/tube, and detection was conducted by a flow cytometer.

T3 sequence (chain, as listed by the source limits assumed): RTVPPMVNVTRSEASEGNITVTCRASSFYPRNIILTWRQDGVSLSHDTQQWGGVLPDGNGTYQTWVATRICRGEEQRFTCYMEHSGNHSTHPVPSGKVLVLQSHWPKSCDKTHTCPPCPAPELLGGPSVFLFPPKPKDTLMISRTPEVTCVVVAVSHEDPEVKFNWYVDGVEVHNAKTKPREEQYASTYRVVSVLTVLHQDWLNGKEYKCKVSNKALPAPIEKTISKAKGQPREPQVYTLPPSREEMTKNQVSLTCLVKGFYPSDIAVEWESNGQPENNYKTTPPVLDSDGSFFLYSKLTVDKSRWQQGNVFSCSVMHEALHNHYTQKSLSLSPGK
T1 sequence (chain, as listed by the source limits assumed): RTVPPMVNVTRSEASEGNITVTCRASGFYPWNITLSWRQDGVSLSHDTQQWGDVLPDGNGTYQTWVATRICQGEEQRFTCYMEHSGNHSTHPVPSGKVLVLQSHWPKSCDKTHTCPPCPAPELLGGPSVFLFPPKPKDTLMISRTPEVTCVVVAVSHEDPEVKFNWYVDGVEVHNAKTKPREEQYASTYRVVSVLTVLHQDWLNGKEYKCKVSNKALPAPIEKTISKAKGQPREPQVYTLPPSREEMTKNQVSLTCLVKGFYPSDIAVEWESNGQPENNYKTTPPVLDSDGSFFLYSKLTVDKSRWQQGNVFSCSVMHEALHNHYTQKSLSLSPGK
T6 sequence (chain, as listed by the source limits assumed): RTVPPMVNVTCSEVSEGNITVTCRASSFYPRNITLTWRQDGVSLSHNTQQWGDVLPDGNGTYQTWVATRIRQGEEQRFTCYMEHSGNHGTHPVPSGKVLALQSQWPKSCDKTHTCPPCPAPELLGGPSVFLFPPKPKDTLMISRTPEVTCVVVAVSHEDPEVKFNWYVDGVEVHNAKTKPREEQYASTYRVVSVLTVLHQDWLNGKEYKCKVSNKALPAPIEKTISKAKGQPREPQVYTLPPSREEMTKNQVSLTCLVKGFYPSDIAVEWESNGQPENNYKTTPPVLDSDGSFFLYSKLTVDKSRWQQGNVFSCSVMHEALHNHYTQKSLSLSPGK

B1: antibody 1D5V11 (Genentech) (antibody, human IgG1, kappa, V domains shown)
VH: EIQLVQSGAEVKKPGASVKVSCKASGYAFTSQNIYWVRQAPGQGLEWIGYIEPYNVVPMYNPKFKGRATLTVDKSTSTAYLELSSLRSEDTAVYYCARSGSSNFDYWGQGTLVTVSS
VL: DIQLTQSPSSLSASVGDRVTITCSASSSISSHYLHWYQQKPGKSPKLLIYRTSNLASGVPSRFSGSGSGTDYTLTISSLQPEDFATYYCQQGSSLPLTFGQGTKVEIKR
notes: also called homogeneous antibody 1D5V11
As a reminder, the EC50 (read off the curve) is the concentration needed to bring the measured effect to its halfway point. Consider B1, for which the “EC50 (read off the curve)” value with MICA002α3-Fc is about 0.05 µg/mL; with MICA005α3-Fc it was about 0.09 µg/mL; with MICA008α3-Fc, about 0.07 µg/mL; with MICA004α3-Fc, about 0.04 µg/mL; with MICB001α3-Fc, about 0.03 µg/mL; with MICB005α3-Fc it was about 0.04 µg/mL. Also, the 50% effective concentration (EC50 (read off the curve)) is about 0.3 µg/mL in [1], about 0.4 µg/mL in assay [2], about 0.1 µg/mL in assay [3] and about 0.3 µg/mL in assay [4]. Besides, the “IC50 (read off the curve)” value in assay [5] was about 5 µg/mL.

B2: antibody CLN-619 (Cullinan) (antibody, human IgG1, kappa, V domains shown)
VH: QVQLVESGGGLVKPGGSLRLSCAASGFTFSNYAMSWIRQAPGKGLEWVSYISPGGDYIYYADSVKGRFTISRDNAKNSLYLQMNSLRAEDTAVYYCTTDRRHYGSYAMDYWGQGTLVTVSS
VL: DIVMTQSPLSLPVTPGEPASISCRSSKSLLHSNLNTYLYWFLQKPGQSPQILIYRMSNLASGVPDRFSGSGSGTAFTLKISRVEAEDVGVYYCMQHLEYPFTFGPGTKLEIKR
notes: hIgG1 subtype
With B2, the “EC50 (read off the curve)” value in the assay with MICA002α3-Fc was about 0.07 µg/mL; with MICA005α3-Fc, about 0.2 µg/mL; with MICA008α3-Fc, about 0.1 µg/mL; in the assay with MICA004α3-Fc it was about 0.04 µg/mL; with MICB001α3-Fc, about 0.05 µg/mL; with MICB005α3-Fc, about 0.04 µg/mL. For the same molecule, the “EC50 (read off the curve)” value in assay [1] was about 0.7 µg/mL; in assay [2], about 0.7 µg/mL; in [3] it was about 0.3 µg/mL; in assay [4], about 0.7 µg/mL. In addition, in assay [5], the “IC50 (read off the curve)” value was about 4 µg/mL.
